From the NTF2 design screens of Basanta et al. (2020)

Assay: protease stability score; higher = more stable; yeast display proteolysis, trypsin and chymotrypsin;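 further: relative to predicted unfolded state with 0 unfolded-like and 1 meaning tenfold more protease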

In the case of “SEAEKRSEIILRLILHSLHTGDEHTLESLFDPNVRILIGDKELVGMEELSKLLRHIRIERVHIHLRDDRQQGDKADMDVELHRHGTFNGVRRDESSRIWIHAEKVDGRWVISEVIVH”, the protease stability score is reported as 1.02.
For “SEAERDAKELLELIVTTMRTGDEETLNRLMDPHTRLHVNGRDLIGRELMTEFLHEIRIEDSRTRDVRVFNGRLEVEGKLRGDWNGVEREVETRYIVEKVNGRWLLHSVTFE”, the protease stability score was 0.413.
“SEDAEYIKEFAELFFRWWITGDEEHLRSLADPHTRSDVNGRDIHGMELWSKMLLDHLTKIKNVRYTLREVRFFENHTELDMKVDINGKEMKFSIRVSLINGRLHSITVRLHSE” gave a protease stability score of 1.35.
For “SEDAKLTEELFREWLTIMLTGDWEQSLRRIDPHARLIIDGRHFHGREEFSKVVKELRFKDMIDRRIHVDENEVFVDVELRGVINGREVTIKTHILIVVIDGVIHSIEIRNR”, the protease stability score was 1.29.
“SEDDDHSEHMYRRILELWKTGNWRLFHELLDPNTRFEIGDKEFHGREEVVEYLRRDLEKFKNIRFHIRQHEVVGNKLHIDGEIIFNGKHEHVHIILLIVDGKIKEIRFESR” showed a protease stability score of 2.72.
Work on “SEDDDLAKDFVSLMLHEFRTGNEESMSKLVDPHVRLHIGDKTYVGRENVSRILKKELRDYGIDHMHIDHLRVQGDKVHIHTTYRQGDKEMETHFVILKVDGKWFMHEIEIR” yielded a protease stability score of 1.88.
In the case of “SEDDDLIREFFEDWVKSVLTGDEDTIAKLADPHTRHEYGDKEHHGRDLVVEMLTFLYKHIRFEDVRLRHFDIQGNKIILHGKVEGKIDGRHRTFDVTIEVIKVNGQWLWHTIVIR”, the protease stability score is reported as 1.89.
For “SEDDDSAREILRILTEAWYTGNEDELIRLMDPNARSLFDGVEFHGRELVRLWKERVDHTHSIKVKLHSMRIIGNKLEVDGRLEQEGEINGRRFLIVVEVHLIILKVNGRWRMHSVEVR”, the protease stability score was 1.68.
Sequence “SEDDEAVSHALHLLSEVLLTGDERTWKRLADPNVKLEFNGREFHGMEEWKRMLDHIRIDHVKIELERSDSIGDKMHTHGRLIVHTTINGVELDRITDVRFIIEKVDGRWKLTSLHIH” has a protease stability score of 1.29.
Sequence “SEDDEDLKFAWDHLLRSWLTGNFDFFKEMFDPHTRLEQGEKEHHGRNAFERYLRELGIDHIKNIHIEDVEIQGDKMRLHGRQHIFVNGREINLEVTYIILKINGQWHLHRVRIK” has a protease stability score of 0.846.
For “SEDDEDNERWFERLLHSLHTGNEELTRKLMDPNVRVDFNGKDLHGMDHMVKLVRHLRNRVDHLHMLVHHSDNINGVAHNDVTLELRYGDKTERLRVRIVASKVDGRWILKSVEID”, the protease stability score was 1.28.
In the case of “SEDDEDVERAAKLMLHILRTGDERHLHEYLDPNVRSIVNGREFHGRESLLHVMTLQMRELGIDHINVRRVKYDEDEVHFFMNVNINGQHREVIFRAKKINGRWIFHEVELR”, the protease stability score is reported as 1.7.
“SEDDEEKEEYLRKELEAHRTGDWRLFRELIDPHTKIHINGVLFVGWKDATRFFKEIRVKDHKVHRVRNIDGRIEMDGELNIDIDGREDIMIVHIRAKKVNGRWIVDSVEFR” showed a protease stability score of 1.19.
For “SEDDEELEEAARRTLKIIRTGDEDLYTRLADPHDKMQIDGVETHGMEEISRWLKEHRDRFKGLKMIERRIRVTSIDGQVRVHIDTELRVDGVTQRVELNWIASKVDGRWRLERVEFIIR”, the protease stability score was 0.745.
“SEDDEEVRIALDIQRELFRTGDWRSIEEFLDPNVRVHVGDKEIHGMEELLRYYTHIMNHLGAKHWHVTEYTSIGDFVHIDGEFIQGDKTFHLKIHLLKFNGRWIIHSRIID” showed a protease stability score of 1.22.
“SEDDEFIRFVSEIIEHILETGDEESLIKLADPNAQFIHIINGREIRYHGRHIFIEWWRRLGIDHLKIEDVRVEQQGDKMRTDFRVILRVGDKTIDSKLHFLIRKVDGKWHVESIKVEHR” showed a protease stability score of 2.27.
For “SEDDEFYKHAFNLMIRVLETGDEELFTKMADPNVRSEINGQDIHGREMLSHIVLEEVRRADHIEFRIDHFRVIGDKVEHDGTKILNVNGVNIELRFHLHSVKVNGKWILKSERVD”, the protease stability score was 0.869.
In the case of “SEDDEHLREFIEIRLHAIETGDWRRMEHLFDPNVRFEFNGVELHGMETVARRLSRIDHEWSEIRINRHRLFNGVLHLDTRLDLRVHVDGKEIRVEHTTRIVILKFNGRWLITEMTIE”, the protease stability score is reported as 0.748.
For “SEDDEHMKEIWRILQHSLETGDFHILSRMADPNAKFDIGDKEIVGMHLWIEELLRYKNRQIRVHYHEMRVYDGKIDSRERYDVKYGDKELTTELRVHARKIDGRWVLEDVRVH”, the protease stability score was 0.668.
“SEDDEHSRDAFEIFMRLIRTGDWHHLLNLLDPHVRIDFNGREHIGREEATRILVEWRIRNIRLRHYDMVNGRAHFHTESDVEFNGRRDKIEIHMVVLKIDGRWFIHSMIIH” showed a protease stability score of 2.42.
Sequence “SEDDEIKKHVAERWLKRLETGDEKTLSKLLDPDVRLHINGRTLHGREEVVHELHKWYYELGVDHVILRHIDHVNGQLRLHNEIRFENRHTSEILVITKVDGQWIVKYIEIRDH” has a protease stability score of 1.53.
“SEDDEILERMLRELIHLIRTGDEDSIREMADPNVRLIINGKEFHGMEEYIKTWHRILERFDHLRHVELHDEHRFDGRVRIWGTLNHRIGDKHTRFTVHIVALKFNGRWILKSEEIT” gave a protease stability score of 1.36.
For “SEDDEITHYILQLWLDLVQTGDEEKLTDLHDPHVRNRINGREKHGRERAAELLSRLKKALGIDHIHRLMIEDFRIQGEKIQLHVRIKQEINGQEFTRSIELILLKINGRWSVESIDIR”, the protease stability score was 1.42.
In the case of “SEDDEKIERWLHIILRAFETGDERILQELMDPNTRMDINGVEIHGRERVTKELHRIRKELGADHIEVRLTDEKRVNGRLRLHTQLHFHQGNKLIIIESRILFEKYDGKWMIESMSEK”, the protease stability score is reported as 1.05.
Work on “SEDDEKLEQIIELLDKVMKTGDERAYNELMDPNTRYQVGDKEFHGMEWWSEIYSRHEKKLGIEKVEVDIENHHVQGDKVTVHGRVNINGREHEYRFVLTKVDGQWRLREENIK” yielded a protease stability score of 1.15.
With “SEDDEKLKDFLRMLIEVILTGDEERFFELLDPHARLEYGDKEFHGREVIYHWFFNEFRRIKGLVFRNIHLREHDVVDGRLQIDLEVHIIFNGKTRSHDIHFVATKIDGRWILRTESIK” the protease stability score was 2.33.
“SEDDEKSQEIMHRFIKYYETGDWKRLYELADPNARSYYNGKERHGMDVIRDLIEKVKNVKLHIRRIESDVQGDKINLHLDVEVDIDGQIMTLHDTVHAEKIDGRWRIRIIFLHVK” showed a protease stability score of 1.36.
In the case of “SEDDEKVREAFELWARLVLTGDEEIIEKMVDPHMRIEIGDKELHGRDELRRWIREIRIRDIDVHDVRVQGDKAESDLKVRMDIDGVETRRHTHLIMHKFDGRWIIESIDVR”, the protease stability score is reported as 1.36.
Work on “SEDDELAHLFFELFLKLIQTGDEDKLLDLMDPNAKSEYNGVILHGREHKEHWRRRFKNIRVHYRHVEIHFQGNYLHIRIDGSLDINGQEIDSHVRLHTEKVNGKWIVRSMHFHYT” yielded a protease stability score of 1.25.
With “SEDDELIKKYIKRWLHDLVTGDEDSLEELIDPNARLDINGKELIGREWVERVTKELRIEHINPRSVRSINGKVEIETEVHVNVNGVKIILDRHLDIHKVNGKWIVKEVRVK” the protease stability score was 1.14.
Sequence “SEDDELSKHAFDMLRDSIHTGDEHLNNKLFDPHVRLYYGDKLLIGREHLTRLLFFWAKELRIELRVRHYESQGEKVDIHVELIMRVNGREQKHDVILYLEKVNGRWIMHSIEIR” has a protease stability score of 0.775.
In the case of “SEDDELVTRMFKVWLHDWITGNEEQIHRMVDPDYRLEIGDKDIHGMEASLHWLRKIKNIQFRFHLEHVDVVNGKAKSEGRYIEEFEGVKIDRDVELYLHIVDGRIKSMSIHKR”, the protease stability score is reported as 1.29.
“SEDDEMLKLFFELVHRFHLTGDETNHLNNMDPHARMNAENWRRHGRHALEQLRTRFDHIDHVHLDHYETFDGRLILHVTVDGQFDGVRDRNTLHIVMKKINGRWIMEELRIQ” gave a protease stability score of 1.23.
Sequence “SEDDEQAHRTIEIWLRASRTGNEEELERLADPHDKIEFNGREHHGREEFLKIMKHLRVHHMDVRDRTLIGDKINIDVILDLHFNGRRHIIELTTILVKINGRWFFKSWIFI” has a protease stability score of 1.21.
Sequence “SEDDERMERLTRILLEALETGDEDALRELIDPNARVDVNGVRDHGWKEVRKLLKELGVDHIKIHDHHIQGEKSRIDGEIHFNGKSERVTILWIMINGRVKFMSVKHT” has a protease stability score of 1.79.
With “SEDDERMKKLLSDIWRLLMTGDEELWAKLADPNVRVDVNGRERHGREEVVKLLRELRHERRGRREEHHTVEDFRIYGDYSEVDYRYWVVFNGQREDVTMHIHIQVVNGRLKEIEIKMR” the protease stability score was 1.51.
For “SEDDERQRWIIEELVKTERTGDEHRRMELADPDYRLEIGDKEVHGMEEASRILHDELFNLGINHMHIKEWRVQGDKVHLEGLMVVGDKTHRVRIHYVIVNGRVKTLKWRID”, the protease stability score was 1.33.
Sequence “SEDDERSEKAAEKWLHNFVTGDFKEMSDNLDPNTRLHVDGKDFVGMELVLKIFEDLWDHLGVDHVLINDSHVHVIDGKLHSHLDVTEEVNGRRRRVEIIIIAVKVNGRWRQKEVHIMFR” has a protease stability score of 0.794.
Sequence “SEDDERWEKFMEELERAAHTGDWRFFKKMIDPEVRIDINGKEIIGMDEYIRHEKERLKRLGHTNVDIQIIIHRTERQGDKLDVDTEIRIHIGDKTITFRMTLILIKVNGVWLIKAMIIH” has a protease stability score of 1.56.
“SEDDESLKRHIDLLLRVLETGNEEDLFRMIDPDAKMDWNGVDNHGMELIHKVWHELGLSNVRSHTEDFRVVGDKAEIHIRVEFNGRHHRVEIHTLKINGRWRVRRFHIR” showed a protease stability score of 2.4.
“SEDDETIERASRLLVEDHDTGDWESWEKNADPNMRLVIGDKDVVGRENVVEHLHRLRKKMGVKHVHLRVESIEVQGDKIRQDGRLLIIVNGQELRIEVRIVAIKVNGQWINRMVDVK” showed a protease stability score of 1.08.
“SEDDETSSKAMHRILEIFETGDWKKLAKLADPNVRLRIDGQDVHGRELFTKIFRTELERFGHEQFEVHKSHEDVQGDKLELHTLVIYGDKRERIEIHSVKFNGVWLISTMRIDRH” gave a protease stability score of 0.935.
For “SEDDETVIRMTHIILHAIFTGDEHITERLMDPHAKVTVGEFDTHGWEELDRFWKEMRMKRLKIRRIDFRWVNGRILSEIVVELDGIVNGRERKITMLIVIIIDKIDGRWVVTEFHFRIE”, the protease stability score was 1.43.
With “SEDDEWLHNFIERLLHTILTGDEHIFSELADPNVRLDIGDKELHGWHLIVRHYIDEFRQFKGVRVHIRIRRFTQIGDKVHYDGELIFVIGDKTIIRELHLVVVKIDGRWKLEHFEIR” the protease stability score was 2.74.
With “SEDDEYSELFVKTWFEILRTGDEEKIRRMLDPDARSTINGKDLHGRERIEEHLHELFLRLGLSNVKVHLHDYRFIGDKLHLHGKLTINGQEFDTKVDAWKFNGRWFMHQIHLR” the protease stability score was 1.39.
Work on “SEDDHELEHAARRHFRDFWTGDWKSISRFLDPDAKVELLVNGQHIEIHGREQIIEQMLRIPNLRFELKRVHTEIYGEKMHVHVRGVVEFDGVREDVVLIFIFEKFNGRWHISKESREFR” yielded a protease stability score of 0.35.
Sequence “SEDDHELEKLIRLWYDSVLTGDERTINELFDPNTRLEINGKVLHGMENFHRFVHTFLHHIRLKRIEIEDIKYINGVAHIDSRMVGDINGKDVRYETQFLVQKVDGKWVIKAVIIR” has a protease stability score of 2.08.
“SEDDHELKEELKIIMKSSLTGDEDTLNRLADPHARIHQGEFNLHGREEFSRLFVELRMHDIRIEDYEVIDGRVEVDIRLNIHYNGKRYIKVTRSVFRKVDGRWLIEEVRYD” showed a protease stability score of 0.494.
In the case of “SEDDHERHRFLELIKHNHKTGNEENIYRMADPDVRLHIGDKEFHGMEHHMEFLREWLDRLGIDKVEFQVERIHVQGDKINVDVNLNVNGKHYRVILYLIKIDGRWRIKLLEIR”, the protease stability score is reported as 0.884.
Sequence “SEDDHMAELASRLVHERVKTGDPRVVDELLDPNVRLEYGDKEWHGREEFRKFLRHLRLHDVHIRSYEIQGDKVYIDGRVDGEVNGKRSLLETHIYAKKIDGRWLETSVVMK” has a protease stability score of 0.561.
